Experimental data: paper PMC3613695 (The Journal of Cell Biology, 2013)

B1: Vab2 with C-terminal TAP tag (natural protein)
chain: MVADLTKGILKWKSRIEFDAVGSSSYYEELKGLPPLASHKKLTQAAIFNSTKYELLQVKKDILSIYEVVSRDIDEERNQMQQIELQLKKSLKKVEHSYKNVLKQRASTNCINGNDRLLANAEKKIGSLNEELACVNDIVSDIVNNLTALNANLPKKAQLLKDDSINVAHYPLLFDFLHKSCPKSIIATSEASIHENASPSPLLEHDELPAESINSFYGENELQSDSLAPLQTHDDNISSCKKILPPKFNTTSGPSIETNFENISADGLTYTKCSLKNSISLT

Columns and labels:
[1] = biological target: B1; assay: SEC
[2] = biological target: Snn1 (BLOC-1 subunit), overexpressed (yeast, UniProt P48232 1-102); assay: affinity purification with mass spectrometry
[3] = biological target: B1; assay: affinity purification with mass spectrometry

binding result [3] | Binder | further results
– | Kxd1 (BLOC-1 subunit), overexpressed (natural protein, yeast, UniProt P53158 1-218, looked up) MVTGISEENDDEETFSAVHSSTPSINSQSYAIPITEEMSSSFHDSISTTSNSSGSFDSDGSNVSDVVEQNEMDNESNVDEDLFLDNDIPQSSNLLPTDAQDPGPIFDVSRYIFDSLKQSIDSADFSEALSLQTKTSAVINSKSLELKQYIDEMKSRLTQLQEKFENGEATSKKIKRDLETSRKNIDYLNAALRVDFPIEFNQAREKILERRLNEDHDC | binding result [1]: binds
– | B1 | binding result [2]: binds
binds | Bli1 (BLOC-1 subunit), overexpressed (natural protein, yeast, UniProt P35727 1-113, looked up) MGEQNKLYYDVEKLVNSLQESFDLDCAQSVSLFTSKSRSNEAWLEELENKFKLKDDVELDDVENLRAEIDMKLNMLEDKVSYYERLYKELEEFQNEIKIKTVVNNRRQSRTPK | –
binds | Bls1 (BLOC-1 subunit), overexpressed (natural protein, yeast, UniProt Q06071 1-122, looked up) MFLTFSMCVNWIIVKMPNRSEELDRLLDKIINSPHRTEASKTLQEIENNQSYILNVQLKKLLRLHDDSFKNKCVSPINYMLEKYTPYMGHTEALQKEAELVDRDLRILEMTYQLIEKNRNSK | –
binds | Cnl1 (BLOC-1 subunit), overexpressed (natural protein, yeast, UniProt Q06333 1-122, looked up) MQDNSSHSRESASAGDDPLGIDKLTVDYDYLLYKMRDYVQSIQLDTTELCKKQNEVMVNGIIENTIDKNIAKFKELLEKCDTLENHYEMLNQLAIITDTFKERIAEAVNNYNSLKKGASKSK | –
